Data: patent publication US20160264663A1 (published 2016)

Key:
human podocalyxin [1] = target: T1, human podocalyxin (human); experiment: flow cytometry, control, 1:5, MDA-MB-231 cells
T1 chain: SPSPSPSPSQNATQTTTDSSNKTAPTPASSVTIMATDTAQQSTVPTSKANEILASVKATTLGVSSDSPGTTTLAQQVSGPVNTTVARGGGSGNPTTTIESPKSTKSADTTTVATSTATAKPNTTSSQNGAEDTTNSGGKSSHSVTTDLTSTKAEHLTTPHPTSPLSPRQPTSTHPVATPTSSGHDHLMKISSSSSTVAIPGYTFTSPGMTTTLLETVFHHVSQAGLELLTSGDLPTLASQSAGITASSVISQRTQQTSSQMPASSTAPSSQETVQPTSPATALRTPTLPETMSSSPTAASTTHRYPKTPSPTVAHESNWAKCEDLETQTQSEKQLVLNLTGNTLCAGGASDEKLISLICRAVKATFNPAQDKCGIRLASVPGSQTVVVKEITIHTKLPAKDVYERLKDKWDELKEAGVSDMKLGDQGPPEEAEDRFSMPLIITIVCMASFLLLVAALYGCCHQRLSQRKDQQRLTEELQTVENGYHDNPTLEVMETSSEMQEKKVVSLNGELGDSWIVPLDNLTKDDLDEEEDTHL

human podocalyxin [2] = target: T1, human podocalyxin; experiment: flow cytometry, control, neat, MDA-MB-231 cells
human podocalyxin [3] = target: T1, human podocalyxin; experiment: flow cytometry, control, 1:125, MDA-MB-231 cells
human podocalyxin [4] = target: T1, human podocalyxin; experiment: flow cytometry, control, 2:15 (so in the source), MDA-MB-231 cells
human podocalyxin [5] = target: T1, human podocalyxin; experiment: flow cytometry, control, 1:5, hPodo/MDA-MB-231 transient transfectants
human podocalyxin [6] = target: T1, human podocalyxin; experiment: flow cytometry, control, neat, hPodo/MDA-MB-231 transient transfectants
human podocalyxin [7] = target: T1, human podocalyxin; experiment: flow cytometry, control, 1:125, hPodo/MDA-MB-231 transient transfectants
human podocalyxin [8] = target: T1, human podocalyxin; experiment: flow cytometry, control, 2:15 (so in the source), hPodo/MDA-MB-231 transient transfectants
[9] = target: human podocalyxin (human); experiment: flow cytometry, A172 cells
[10] = target: human podocalyxin (human); experiment: flow cytometry, MCF7 cells
[11] = target: human podocalyxin (human); experiment: flow cytometry, CaOV3 cells
[12] = target: human podocalyxin (human); experiment: flow cytometry, HUVEC cells
[13] = target: human podocalyxin (human); experiment: flow cytometry, SKOV3 cells
[14] = target: human podocalyxin (human); experiment: flow cytometry, T47-D cells
[15] = target: human podocalyxin (human); experiment: flow cytometry, OVCAR3 cells
[16] = target: human podocalyxin (human); experiment: flow cytometry, 293 HEK cells
[17] = target: human podocalyxin (human); experiment: flow cytometry, OVCAR10 cells
[18] = target: human podocalyxin (human); experiment: flow cytometry, 5 ug/mL antibody, 293 cells
[19] = target: human podocalyxin (human); experiment: flow cytometry, 5 ug/mL antibody, A172 cells
[20] = target: human podocalyxin (human); experiment: flow cytometry, 5 ug/mL antibody, MCF7 cells
[21] = target: human podocalyxin (human); experiment: flow cytometry, 5 ug/mL antibody, CaOV3 cells
[22] = target: human podocalyxin (human); experiment: flow cytometry, 5 ug/mL antibody, HUVEC cells
[23] = target: human podocalyxin (human); experiment: flow cytometry, 5 ug/mL antibody, T47-D cells
[24] = target: human podocalyxin (human); experiment: flow cytometry, 5 ug/mL antibody, OVCAR3 cells
[25] = target: human podocalyxin (human); experiment: flow cytometry, 5 ug/mL antibody, OVCAR10 cells
[26] = target: human podocalyxin (human); experiment: flow cytometry, supernatant 1:5, MDA-MB-231 cells
[27] = target: human podocalyxin (human); experiment: kinetic exclusion assay (KinExA 3200), A172 cells
[28] = target: human podocalyxin (human); experiment: flow cytometry, 5 ug/mL antibody, MDA-MB-231 cells
[29] = target: human podocalyxin (human); experiment: flow cytometry, supernatant neat, MDA-MB-231 cells
[30] = target: human podocalyxin (human); experiment: flow cytometry, supernatant 1:125, MDA-MB-231 cells
[31] = target: human podocalyxin (human); experiment: flow cytometry, MDA-MB-231 cells
[32] = target: human podocalyxin (human); experiment: kinetic exclusion assay (KinExA 3200), MDA-MB-231 cells
[33] = target: human podocalyxin (human); experiment: flow cytometry, supernatant 2:15 (so in the source), MDA-MB-231 cells
[34] = target: human podocalyxin (human); experiment: flow cytometry, supernatant 1:5, hPodo/MDA-MB-231 transient transfectants
[35] = target: human podocalyxin (human); experiment: flow cytometry, supernatant neat, hPodo/MDA-MB-231 transient transfectants
[36] = target: human podocalyxin (human); experiment: FACS, hPodo/MDA cells (MDA-MB-231 transfected with human podocalyxin cDNA)
[37] = target: human podocalyxin (human); experiment: flow cytometry, supernatant 1:125, hPodo/MDA-MB-231 transient transfectants
[38] = target: human podocalyxin (human); experiment: flow cytometry titration on 293-6E cells (endogenous podocalyxin), 24 hours at 4 C
[39] = target: human podocalyxin (human); experiment: flow cytometry titration on 293-6E cells (endogenous podocalyxin), 48 hours at 4 C
[40] = target: human podocalyxin (human); experiment: flow cytometry, supernatant 2:15 (so in the source), hPodo/MDA-MB-231 transient transfectants
[41] = target: human podocalyxin (human); experiment: FACS on MDA-MB-231 cells; biotinylated antibody 5 ug/mL, no competitor (FACS Buffer row)

Molecule: Rb IgG (antibody)
- FACS signal (name not given) (human podocalyxin [1]): 467
- FACS signal (name not given) (human podocalyxin [2]): 574
- FACS signal (name not given) (human podocalyxin [3]): 431
- FACS signal (name not given) (human podocalyxin [4]): 438
- FACS signal (name not given) (human podocalyxin [5]): 660
- FACS signal (name not given) (human podocalyxin [6]): 762
- FACS signal (name not given) (human podocalyxin [7]): 645
- FACS signal (name not given) (human podocalyxin [8]): 617

B1: Rb/Hu Podo83 (Podo83 rabbit VH and VL, human IgG1 chimera) (antibody, V domains shown)
VH: CQSLAESGGRLVTPGTPLTLTCTASGIDLSSYAMGWVRQAPGKGLEYIGFIYASGSIFYASWAKGRFTISKTSSTTVDLKMTSLTTEDTATYFCARAGYYFGGNYDLNLWGQGTLVTVSS
VL: DIVLTQTPASVEVAVGGTVTIKCQASQSISNYLAWYQRKPGQPPRLLIYRASTLASGVSSRFKGSGSGTQFTLTISGVECADAATYYCQQGYVSNNLDNIFGGGTEVVVK
modifications: human IgG1/kappa constant regions
- Live cell GeoMean FL (geometric mean fluorescence units) [9]: 224000
- Live cell GeoMean FL (geometric mean fluorescence units) [10]: 28400
- Live cell GeoMean FL (geometric mean fluorescence units) [11]: 23400
- Live cell GeoMean FL (geometric mean fluorescence units) [12]: 24500
- Live cell GeoMean FL (geometric mean fluorescence units) [13]: 59800
- Live cell GeoMean FL (geometric mean fluorescence units) [14]: 1130
- Live cell GeoMean FL (geometric mean fluorescence units) [15]: 28600
- Live cell GeoMean FL (geometric mean fluorescence units) [16]: 28200
- Live cell GeoMean FL (geometric mean fluorescence units) [17]: 1530
- Live cell GeoMean FL (geometric mean fluorescence units) [18]: 28200
- Live cell GeoMean FL (geometric mean fluorescence units) [19]: 170000
- Live cell GeoMean FL (geometric mean fluorescence units) [20]: 60800
- Live cell GeoMean FL (geometric mean fluorescence units) [21]: 48800
- Live cell GeoMean FL (geometric mean fluorescence units) [22]: 44600
- Live cell GeoMean FL (geometric mean fluorescence units) [23]: 1500
- Live cell GeoMean FL (geometric mean fluorescence units) [24]: 16500
- Live cell GeoMean FL (geometric mean fluorescence units) [25]: 2820
- FACS signal (name not given) [26]: 121000
- Kd [27]: 0.103 nM
- Live cell GeoMean FL (geometric mean fluorescence units) [28]: 91900
- FACS signal (name not given) [29]: 143000
- FACS signal (name not given) [30]: 50600
- Live cell GeoMean FL (geometric mean fluorescence units) [31]: 88900
- Kd [32]: 0.0456 nM
- FACS signal (name not given) [33]: 102000
- FACS signal (name not given) [34]: 99300
- FACS signal (name not given) [35]: 79000
- FACS signal (name not given) [36]: 178000
- FACS signal (name not given) [37]: 58500
- EC50 [38]: 0.0295 µg/mL
- EC50 (half-maximal binding) [39]: 0.0305 µg/mL
- FACS signal (name not given) [40]: 155000
- FACS signal (name not given) [41]: 139000
